Among the data in publication PMC5042579 (Molecular Biology of the Cell, 2016) are binding result and Kd values, retold here.

As usually defined, the Kd is the constant that tells how readily two partners part at equilibrium. A low value points to tighter binding.

Assay [1] concerns the target T1, tau (human 1N4R-tau isoform, 412 amino acids) (human, UniProt P10636-7 1-412). Kind of assay: TIRF microscopy of reconstituted dynamic microtubules.
In assay [2] the target is T1, tau (human 1N4R-tau isoform, 412 amino …). The experiment in a line: pull-down.
Assay [3] shares this target. The experiment in a line: other fluorescence titration.

B1: GFP-EB1-Δ-tail (GFP-EB1 lacking the last 20 amino acid residues) (domain or fragment)
chain: MAVNVYSTSVTSDNLSRHDMLAWINESLQLNLTKIEQLCSGAAYCQFMDMLFPGSIALKKVKFQAKLEHEYIQNFKILQAGFKRMGVDKIIPVDKLVKGKFQDNFEFVQWFKKFFDANYDGKDYDPVAARQGQETAVAPSLVAPALNKPKKPLTSSSAAPQRPISTQRTAAAPKAGPGVVRKNPGVGNGDDEAAELMQQVNVLKLTVEDLEKERDFYFGKLRNIELICQENEGENDPVLQRIVDILYA
Consider B1, for which the binding result in assay [1] was “binds”.

B2: biotinylated EB1 (mouse end-binding protein 1) (natural protein)
chain: MAVNVYSTSVTSDNLSRHDMLAWINESLQLNLTKIEQLCSGAAYCQFMDMLFPGSIALKKVKFQAKLEHEYIQNFKILQAGFKRMGVDKIIPVDKLVKGKFQDNFEFVQWFKKFFDANYDGKEYDPVAARQGQETAVAPSLVAPALSKPKKPLGSSTAAPQRPIATQRTTAAPKAGPGMVRKNPGVGNGDDEAAELMQQVKVLKLTVEDLEKERDFYFGKLRNIELICQENEGENDPVLQRIVDILYATDEGFVIPDEGGPQEEQEEY
modifications: biotin (EZ-Link NHS-Chromogenic Biotinylation Kit)
Regarding B2, the binding result in assay [2] was “binds”.

B3: EB1 (mouse end-binding protein 1), not labelled (natural protein)
chain: B2 chain
With B3, the Kd in assay [3] is 1700 ± 1100 nM.
